Measured values published in patent US20260158151A1.

Target: RAS (endogenous RAS of human pancreatic PANC-1 cells and PANC-1 xenograft tumours, detected with a pan-RAS antibody)
Assay: cell-based or functional assay

RRSP protein expressed in cells from rrsp mRNA delivered by PPDP2 nanoparticles (from UniProt A0A2S3R7M0 3596-4089) (enzyme)
cell proliferation measured by crystal violet staining, PANC-1 cells, 1.25 µg PPDP2-rrsp: > 60 % reduction | total levels of intact RAS, western blot with pan-RAS antibody, PANC-1 cells treated with PPDP2-rrsp: 40 % reduction
